According to patent publication US20060204979A1 (INVITROGEN, published 2006):
Residue numbers refer to the chain shown, from its start. Names and notes keep the numbering of the source.

B1: RalGDS RA allele 16, R20M (other, not shown: small tags and cut ends)
chain: YNQQVGDCCIIMVSLDVDNGNMYKSILVTSQDKAPTVIRKAMDKHNLDEDEPEDYELLQIISEDHKLKIPENANVFYAMNSAANYDFILKKR
B2: RalGDS RA alleles 6 and 15, K52E (other, not shown: small tags and cut ends)
chain: B1 chain with M12R, K44E
notes: also called clone 6 (RalGDS screen); clone 15
B3: RalGDS RA allele 4, I77T (other, not shown: small tags and cut ends)
chain: B1 chain with M12R, I69T
B4: RalGDS RA allele 22, Q67R (other, not shown: small tags and cut ends)
chain: B1 chain with M12R, Q59R
B5: RalGDS RA allele 23, M50V (other, not shown: small tags and cut ends)
chain: B1 chain with M12R, M42V
B6: RalGDS RA alleles 3, 8, 27, 30, 35 and 36, L65P (other, not shown: small tags and cut ends)
chain: B1 chain with M12R, L57P
notes: Six clones with the same amino acid change; also called clone 3; clone 8
B7: RalGDS RA allele 2, L66P (other, not shown: small tags and cut ends)
chain: B1 chain with M12R, L58P
notes: also called clone 2
B8: RalGDS RA alleles 17 and 19, Y31C (other, not shown: small tags and cut ends)
chain: B1 chain with M12R, Y23C
notes: also called clone 17; clone 19
B9: RalGDS ras association (RA) domain expressed from pEXP22/RalGDS as GAL4 AD fusion (other, UniProt Q03386 767-864, looked up, not shown: large carriers)
chain: SSSLPLYNQQVGDCCIIRVSLDVDNGNMYKSILVTSQDKAPTVIRKAMDKHNLDEDEPEDYELLQIISEDHKLKIPENANVFYAMNSAANYDFILKKR
notes: domain: ras association domain; Prey; also called RalGDS wild type
B10: Fos (leucine zipper region), negative control prey with Krev1 (other, UniProt P01100 132-211, looked up, not shown: large carriers)
chain: LSPEEEEKRRIRRERNKMAAAKCRNRRRELTDTLQAETDQLEDEKSALQTEIANLLKEKEKLEFILAAHRPACKIPDDLG
notes: domain: leucine zipper region; the only Fos ORF it describes is the leucine zipper region

target: T1, Krev1 (full-length ORF) expressed from pEXP32/Krev1 as GAL4 DBD fusion (rat, UniProt P04386 1-147; P62836 1-184); test: cell-based or functional assay

Binder	3-AT Phenotype (concentration of 3-AT required to inhibit growth under histidine selection, HIS3 reporter) [mM]
B1	50
B2	10
B3	> 100
B4	100
B5	> 100
B6	10
B7	10
B8	10

target: T1, Krev1 (full-length ORF) expressed from …; test: yeast two-hybrid (ProQuest)

Binder	binding result
B9	binds

target: T1, Krev1 (full-length ORF) expressed from …; test: yeast two-hybrid; no growth under histidine selection with 10 mM 3-AT, no URA3 activation
Method: To confirm the initial mutant phenotypes, plasmid DNA from the 17 mutant alleles and 6 wild type clones was co-transformed into MaV203 with pEXP32-Krev1. Transformants were tested for their ability to activate the URA3 reporter, as well as the HIS3 reporter in the presence of 10 mM, 25 mM, 50 mM or 100 mM 3-AT. All six wild type clones (7, 9, 11, 12, 20 and 21) produced strong URA⁺ and HIS3/100 mM 3-AT⁺ phenotypes, except clone 20. […] Clone 4 (I77T) and 23 (M50V) were the only mutants displaying a strong growth phenotype in the presence of 100 mM 3-AT.

Binder	binding result
B2	no binding
B6	no binding
B7	no binding
B8	no binding

target: T1, Krev1 (full-length ORF) expressed from …; test: yeast two-hybrid negative control, HIS3/3-AT reporter
Method: Yeast transformations were performed according to MaV203 competent yeast cell protocol (Invitrogen, Carlsbad, Calif.) using Gateway destination vectors pDEST32 and pDEST 22 (Invitrogen.com). Briefly, 25 μl cells are mixed with 1 μg bait construct (pEXP32-Bait ORF) and 1 μg prey allele library (EXP22-Prey allele library). pEXP32 is an expression construct in which a partner sequence (“bait”) is fused to the GAL4 DBD. pEXP22 is an expression construct in which a target sequence (“prey”) is fused to the GAL4 AD. Next, 180 μl LiAc/PEG solution is added and tube is inverted several times to mix. Incubate at 30° C. for 30 min, add 10 μl DMSO and heat shock at 42° C. for 10 min. Spin down cells at 1800 rpm, resuspend in 1 ml dH2O, serial dilute to 10⁻². Plate 100 μl of dilutions 10⁻¹ and 10⁻² on CSM-LW, and 100 μl undiluted and dilution 10⁻¹ on CSM-LW+5-FOA. Incubate plates at 30° C. for 3-5 five days. Patch colonies from CSM-LW+5-FOA onto CSM-LW (along with positive and negative control patches) and incubate at 30° C. for 2 days. Replica plate onto CSM-LW and CSM-LWH+3-AT (10 mM, 25 mM, 50 mM and 100 mM). […]
In creating the allele library for RalGDS, it was calculated using the guidelines in Materials and Methods that 200,000 individual Kan⁺ clones was sufficient to provide good library representation for the 296 bp ORF. […]

Binder	binding result
B10	no binding
